{
  "source": "patent US20210139907",
  "about": "“MATERIALS AND METHODS FOR THE DELIVERY OF THERAPEUTIC NUCLEIC ACIDS TO TISSUES” (UNIVERSITY OF MIAMI, published 2021)",
  "binders": {"B1": {"name": "1-717 (ssRNA)", "RNA": "GGAGGACGAUGCGGUAAUUCUCAGGAGGUGCGGAACGGGAUAUGGAUUGUUCGCCAGACGACUCGCUGAGGAUCCGAGA", "modifications": "2'-F pyrimidines (2'-F-dCTP, 2'-F-dUTP in selection transcription)"}},
  "target": "TMED6 (Homo sapiens, UniProt Q8WW62 Q8WW62:22-240)",
  "sequence (Q8WW62 22-240, one chain of several)": "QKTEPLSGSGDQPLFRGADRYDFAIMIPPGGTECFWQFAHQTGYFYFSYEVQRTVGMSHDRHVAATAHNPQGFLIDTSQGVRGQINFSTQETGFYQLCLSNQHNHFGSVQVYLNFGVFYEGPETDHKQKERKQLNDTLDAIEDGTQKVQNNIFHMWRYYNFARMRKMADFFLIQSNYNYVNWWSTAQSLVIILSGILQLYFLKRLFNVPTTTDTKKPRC",
  "assay": "competition; recombinant TMED6 (aptamer/protein molar ratio 1/1-1/10) dose-dependently inhibits aptamer staining of human pancreas sections",
  "settings": "tags: HuProt v2.0 protein array (Arrayit); label: Cy3",
  "method": "To identify the target of aptamer 1-717, protein arrays (HuProt™v2.0, Arrayit) were used. These protein arrays contains more than 19,000 human recombinant proteins allowing, by informatics analysis, the identification of the cognate protein of antibodies, peptides, or protein. This technology has been adapted for the identification of aptamer's ligands. Briefly, pre-blocked arrays were hybridized with 1 μg of cy3 labeled 1-717 or m12-3773 in blocking buffer for 30′ at RT. Arrays were washed, read in triplicate on a Genepix microarray reader and analyzed by an ad hoc generated software. This software 1) acquires the data from the gpr file, 2) adds a description column with (GeneID, Control, blank, ND), 2) use a optimized “plotArray” function modified in several points (the script was implemented for a specific protein array, plus some problem in UTF file format), 3) performs a quality control that includes a microarray image rebuilding the generation of MA plots, 4) normalized the data and substracts the background; and 5) analyze the differential expression between arrays via graphs of p-value distribution, volcano plot, and analysis of significant modulation by t-test. This analysis proposed TMED6 (NM144676.1, protein id Q8WW62) as the most likely ligand of aptamer 1-717. […] Images were acquired by a fluorescence microscope and aptamer binding quantified by cellprofiler.",
  "data": [
    {"binder": "B1", "values": [
      {"measurement": "binding result", "result": "binds"}
    ]}
  ]
}
